Assay: soluble on expression in E. coli; label from the status in PepcDB or PDB records
With “MGSDKIHHHHHHMFSAMLEVNPIPEQFDAYLGMAKMLRPELEKIEGFIDNERYESLTRPGWLLSLSNWRDEKSLIRWRTTTKHHKVQQAARDRIFADYRLRIGEVDTDTHLPIGEALHQQRLDVTEAGEGKAVTLLDADRSRYWLNGASAEAVAKSLGLDAQARGLLAWDVFKALLSPEEVIVVLTWRDEAAALAFGKNARLPGDVRLRSIRIVREYGMFDRREAPQYFEEVPRKA” the “soluble on expression in E. coli” value was “not soluble”.
With “MTKKYLTFDCYGTLINTEPLYQWVANLGLAVGLDPLTVRKAYATYEDDPASVNPYLDYSTLVRADLKHLDRLFEQRHFFESHYVECLEVQRHLLPYADVIPTLTAWQQLGYQLIIMSNSSWDIMPANIAALKVSFTAVVTAEDIQAYKPALAFFETVQERFKLTADNHWHIARGYESDVVPASAMQWPMIWINRDQRQPTSSERPTHMVTDLAAVKQWVN” the “soluble on expression in E. coli” value was “not soluble”.
With “MRSYAIGDIHGHLSLLQEIHGRIAADRARTGDDEAPVVHIGDLVDRGPDSRGVVEYLRQGIEQGENWVVLKGNHDRMFAGFLRDPAHQDPGLRGDLSWLHPRLGGGPTLESYGVAHAADRPVAIVHREAVALVPAEHVAFIEALPAVYRRDEALFVHAGIRPGVPLAEQIEDDLVWIREPFLSDPRDHGMLVVHGHTAIDAVTHYGNRLNLDSGAAYGGPLSAVVIEGRSVWQLGPEGRRPIALEHHHHHH” the “soluble on expression in E. coli” value was “not soluble”.
In the case of “MKEDWYRKMYGPSASKTYETSLFNLITSEFGYIGGPDVVKLFTKKIVELNNQYYLREEFVRPGQMRWLVLKAGQKYSKSKKLSEMQLIPVTLTLINPEDIEDRITKVKKNELIEKLIVRLCNETKEQGGVLTETDIAILFRLSCTMISNHVTSYEKRTKKVIPRAGTEMDMGKSLTHKRLAFHNYKKKIPTSENARLIDHTPESVDRYIKDGTRIEKLYAAGYDEWNMAFFTGLPIYVVQEYVEIIKSYEKEKNDKKDIENQ”, the “soluble on expression in E. coli” value is reported as “not soluble”.
For “MGSDKIHHHHHHMKQIKHTFEEKKKMGGKASMWNLWHGCHKWSEGCRHCYVYRTDGKYGKDSSVVTKTEKFGLPLQKKKNGEYKIPSGNLVYTCFTSDFLIEDVDEWRAEAWEMMRIRQDLHFMFITKRIDRLQQCLPPDWGDGYDNVTICCTMENQDRVDYRLPIYKESPIKHKIIICEPLLSQIDFRGELEGWVEQVVAGGESGKEARVCNYDWVLDIRRQCVEAHVGFWFKQTGSYLLKDGHEYKVARQFQHSQARKAELNYTPEK”, the “soluble on expression in E. coli” value was “not soluble”.
With “MRTRSQVWAQKAYEKVREAAKGEGRGEYRDMALKLPVLVRQAGLSQALAFVDSRGKEAHKALGNDLAQVLGYRDLRELAEAAREAELLQYLRLTREVLAAAEWFKRFAQALIEE” the “soluble on expression in E. coli” value was “soluble”.
For “MAHHHHHHMSVRSGQFNYDAVARESPVGFTKITEGTTAVLEPPPKKKTCTSSAAPAPASNLSDEEADNQLVDQAVFYNPAQVVNRDLSISVIEVFSRLRLTEPRRRGGTNEGITILEALSATGLRAIRYYKEITNVRYIIANDMDADAVDCIVRNCAYNGVPVQYPTLMANMPAAAIELYAGEAEAEKGESATGASPRVGVRAGGAILPNLDDANDLMFRLAMNSNAHPGKRVCLVDAPAETSATASLRPLLQQELMDVVDLDPYGSASPFLDGAFRCIKEGGLMLVTSTDSAILCGNFADTAHAKYSSMPYKAAHCHEAAVRTLLACVERVANRHQKFIVPLLSLHIDFYVRCFFRVYKQPAETKLSACKLGYQLQCSSCSAFWVRPMATARQPRPSRQERRRQRRALAGRVNSDADEAEEEGKTAEGAAEASRAHARPRRLSKRVRDGSDDDEAVAHDVDGVRTEVYPASPSRHSHPKITPLTLQQMPSAASATSTTAATACPVCGSSIVLSGPLYAAPTQNCEFLQQLLALLHERASEGRLNAEARITGLVRIALEELPDCPLFYLLPDVASYVRVRCPPTPCIVGALARLGYRCSQVHCAAAGLKTDCPPEVLFRVMLQWKTVQDTLDPVGEATIEDGADKSKKKAPAASTAPRSLLVTPLAEADFTYDKAHDFRGRVTGVAKFVPNASGWGPRRRHRGAAAVPEAVECGNGEDNDGGSGEA”, the “soluble on expression in E. coli” value was “not soluble”.
With “MVVLHVKRGDESQFLLQAPGSTELEELTAQVARVYNGRLKVHRLCSEMEELAEHGVFLHPNMQGLTDEQIEELKLKDEWGEKCVPSGGSVFTKDEIGRRNGQAPNEKMKQVLKKTVEEAKAIVSKKQVEAGVFVTMEMVKDALDQLRGAVMIVYPMGLPPYDPIRMEFENKEDLSGTQAALEVIQESEAQLWWAAKELRRTKKLSDYVGKNEKTKIIVKIQQRGQGAPAREPVISSEEHKQLMLFYHRRQEELKKLEENDDDSCLNSPWADNTALKRHFHGVKDIKWRPR” the “soluble on expression in E. coli” value was “soluble”.
In the case of “MAENYQQAAKDIIQLIGMDNIISVTHCQTRLRFILKDHEQVDGKQLEKIDLVKGVFYNGGQYQVILGTGIVTKVYDEIEKLGINVVSKAEQTAI”, the “soluble on expression in E. coli” value is reported as “not soluble”.
With “HLEDVKFMIVGLPDVGLVGAITGMHLIRSKDMSYTVGIDHYGALPPVVIMNRGRVLHPIRIYRSGDVAALITDVPILPAAIPSFSAAVVEYSRRRGIEYIISATGVGNPKRLEQEKPSLYWLASDKKASLLASSLRMASEPEQGIIVGPYAIILKEAMKKHVHNLVLLADSFIDIPDPEAAAVIVEGINSITGLNVSVDELIKQAEEIKLRMRDLMKETKAVMARMGKEMEYRAPILYT” the “soluble on expression in E. coli” value was “not soluble”.
With “MSLYENKKVVAIGGGHGLGRMLAALKVFGSNATGIVTTTDNGGSTGRIRHCQGGIAWGDTRNCINQLITEPSISSMMFEYRFKGAGELNGHNLGNLMLTALDNLSVRPLDAINLIRNMLKVDVNILPMSEHPSDLAALAMDGKWVTGETSVDEMTQDLRRLDLAPEVPATKEAVTAIQDADCVILGPGSFLTSVMPPLLLPELGKAIARNQTAKVIFVENLSPEYGPAGRMSLEQKLEWCERACQGRKIDVVLGHHPHPELEQRWNFVTRDLASANRDWRHDRQKLRQAIEEQLMNLEHHHHHH” the “soluble on expression in E. coli” value was “soluble”.
In the case of “MQNETRTLQLDPHLHIEAYRFKGIMQKFPNHFHDYYVIGFIEKGQRYLACQDQEYIINPGDLLLFNPRDTHSCEQIDGRTLDYRCINVMPDIMEKAVKEITGSGHLPYFSQHVLFRHELTASLQELHILISEEKQALRKEELFLHLLEELIRHYSDVTFLSSVPEPSDEVKMVCE”, the “soluble on expression in E. coli” value is reported as “not soluble”.
With “MQRHPTPNARNSLWRWTDAKHPLRVALNYVVIVLARISPSLHAKNWLLARIGVTVGDGVAWGLESTPDVFWPELVTVGDDAIIGYDATLLCHEFLHDEYRTGAVVVEDRAMIGAGAVVLPGVTIGADAQVAANSLVTADVPPGETVAGVPLEHHHHHH” the “soluble on expression in E. coli” value was “not soluble”.
With “MGSDKIHHHHHHMSDLKVLVIGYMHPRNDKRVFRTVQALSKRSEVIYQYWTEKEELPFKENNIRYIPVKCSNRGNIFQKAVKRKQVDEKIRHLVETEDYDILYMHHFPATKPLKPFVVAKKRGKKIVYDIHEYHPQNFLSTLPRPLSDLKGFVMWRIFKKQLQLSDLCIFVSEETRNDVVAKTGLDPEKTFIVPNYASMKIEPDPDKKKMEIVLVGKTPRNLIHEKKLIRALVERGFSFRIIGMDSEAFSDVPHTYTSFLPYEKMMEELSKSMFSLISYKPTGKEDKNYLYSLPHKFYDSIAAGTPVIVKNSFVSMAKMVEDLGIGVVIDPANVEESLKRIENACQRYEEILENIRRHQEGFVWDEKKEEEFLERVMG” the “soluble on expression in E. coli” value was “not soluble”.
With “MILSVHILDQQTGKPAPGVEVVLEQKKDNGWTQLNTGHTDQDGRIKALWPEKAAAPGDYRVIFKTGQYFESKKLDTFFPEIPVEFHISKTNEHYHVPLLLSQYGYSTYRGS” the “soluble on expression in E. coli” value was “soluble”.
For “MGSDKIHHHHHHDNNVVVLNGSGRSGSNGYAFYKWLLINHPEFNVTLVEPWPSSHLKWETWQKIGAARYVITTHQPFKVRKHQINVQLWHGVPLKRMGIMANNTRYKDNKRNEKLWHKNADIVASSSDLYETLMSACMAIESKKYQKLGFPRLDLLSKPVISKKELLKDLFDQEDEQAAIGIYMPTFRYELEDKSIMQKIKEGNFFAFADFDGEKLNKELKKRHQYLIVKLHPYEMRLFDNFKSQYSNISFLNNDYLFDHNYDLYELLGDTDFLMTDFSSIYFDYLHLNKPIVFVTNFLKQYEKTRGLLMGPYSEITPGISVNSEQELINNLDHLDNQQIVNRRIYWLNLTNQVHGDSYCENVFKYMTQEYRG”, the “soluble on expression in E. coli” value was “not soluble”.
With “MGSDKIHHHHHHVTTIRFLNGLNTIGGNIVEFATKTSRVIMDFGVAADLSNETVSSAIDNGKLPHVPELFFDQPDVYTHEAIFISHLHIDHMGALQYLKKPIPIYLSEPSYKLYQLLIKLGIEKPVANLHPLAYEQPLTIGDLTVTGFHSDHDEPGVMALLVDDGSRRYAHSGDVRLNGPHAKRVHAWAKRFNQEKLSLFMLEGTSFSFDTAAPVEDQDHPSIPLTEMSLQKQFQTVLAESPTLVVINPYIRNYERLASFQASAHTAGRQLVWEPDDAAVLTTMTDQKPDAILGQTISLTDIARDPQHYVLQNSFDHLERLTDMPITTYIHSNGEPLGDYDPRFAQLKDWLEAHHIPLQFMNASGHASREDLITLAKEVNPRTIVPWHSFHPEREAEALDTQTNAAVVLPERDLYYDFDELSEDE” the “soluble on expression in E. coli” value was “not soluble”.
For “GPGSMEVKIGKDVALLTAHKTYRDDGEDMVKAVATYVPFMNYVAACESSGLVPSAFLVRNVRHIARRVVGVIMDVECNTPTGKIVQPVEMSDFSPAILLPVVIVETVRYALLLQRRCVAVGCGLTTEAFCGAKDSGDNITWQNHELLTSAGFDLRDVRKLGFGEYSVGNEGLPPYTLHTIKKGMSSEEFEQLQKISAGTADASLFAVRLEDVMSSVNDAKAGLAASVLLLES”, the “soluble on expression in E. coli” value was “soluble”.
In the case of “MSLSLALQYFKALSDETRLRLIHVLNRHELSVNELVSILEMGQSRVSRHLKILTGAGLLTSRRDGLWVFYSAAAEGDGRAFLDAVTPFVTTDMVLQADLDMAQKIIEERALKTRQFFNAIAEDWDELNREVLGGFDLAGAVAEAMPQCETAVDLGCGTGSVIERMLQRSQQVIGVDGSPRMLELARRRFVEGAERVSLRIGELDHLPLRDGEADFASINMVLHHLSDPGVALGEIRRVLRLGGQLMVTDFDRHDNERMRSDYGDRWLGFEGVQLEGLLREAGFTVRECRRQGVAKGLALHLMLAEKTQEGHHHHHH”, the “soluble on expression in E. coli” value is reported as “soluble”.
For “MSEKQSNEQVEAFLNKESQWQEEYKYLRALIFNETELEEAYKWMHPCYTLNNKNVVLIHGFKNYVALLFHKGAILEDKYHTLIQQTEKVQAARQLRFENLTEIQARTEEIKYYLAEAIKAEKAGKKVEMKKTEEYVIPKELEAKFEEMPQLESSFYKLTPGRQHQYIYHIGQAKRSETKQKRVEKYINQILEGKGMHDK”, the “soluble on expression in E. coli” value was “not soluble”.
With “AHHHHHHGSVSKPHGGKLIRRIAAPRTRERILSEQHEYPRVQIDHGRAIDLENIAHGVYSPLKGFLTREDFESVLDYMRLSDDTPWTIPIVLDVGEPTFEGGDAILLYYENPPIARMHVEDIYTYDKKEFAVKVFKTDDPNHLGVARVYSMGKYLVGGGIELLNELPNPFAKYTLRPVETRILFKERGWKTIVAFQTRNVPHLGHEYVQKAALTFVDGLFINPVLGRKKKGDYKDEVIIKAYYLIMKYCSNTTHHAIMRKTSTSSQT” the “soluble on expression in E. coli” value was “not soluble”.
In the case of “MNAIADVQSSRDLRNLPINQVGIKDLRFPITLKTAEGTQSTVARLTMTVYLPAEQKGTHMSRFVALMEQHTEVLDFAQLHRLTAEMVALLDSRAGKISVSFPFFRKKTAPVSGIRSLLDYDVSLTGEMKDGAYGHSMKVMIPVTSLCPCSKEISQYGAHNQRSHVTVSLTSDAEVGIEEVIDYVETQASCQLYGLLKRPDEKYVTEKAYENPKFVEDMVRDVATSLIADKRIKSFVVESENFESIHNHSAYAYIAYP”, the “soluble on expression in E. coli” value is reported as “soluble”.
With “MKISIVIVTYNRIPALCELLESISRQTLMPYEIIIVNDAGESVVPVKALYPELPIAVINLEKNSGHVAARNAGVKEASGDCIMLCDDDDFFTPGHIEKMAKEIETADFVHSDAEIVSFEEKNGTRYPVSRKLFAYTADYEDMRVFSTYVPSGSMYRRFLHDEIGYFDADVHNYWDWDFYLRAAKDYRVKRVPCASVIYAFSDAGDNQSADLGAKRKQYLDRLSEKHGLGELPTKNFAVLLEEPEMKRREAKSEMVWDGEPVYSRLHRSLEHHHHHH” the “soluble on expression in E. coli” value was “not soluble”.

Reference: the DeepSol protein solubility set
